Test results taken from patent US20240254227A1 (Alector, published 2024).

T1: huCD300F constitutively expressed on 293 Freestyle (Freestyle HEK) cells (human, UniProt Q8TDQ1 20-290)
T1 construct: also called huCD300LF; Human CD300F
T1 sequence: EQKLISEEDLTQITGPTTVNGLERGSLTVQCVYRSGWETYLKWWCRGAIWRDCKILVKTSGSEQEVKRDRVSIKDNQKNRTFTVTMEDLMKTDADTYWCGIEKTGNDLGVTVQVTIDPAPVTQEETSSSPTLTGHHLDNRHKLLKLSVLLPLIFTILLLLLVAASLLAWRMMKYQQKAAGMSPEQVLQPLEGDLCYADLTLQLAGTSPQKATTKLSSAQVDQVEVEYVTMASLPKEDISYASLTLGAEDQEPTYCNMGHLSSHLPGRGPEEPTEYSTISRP

T2: human CD300LB transiently expressed on HEK293 cells (human, UniProt A8K4G0 18-201)
T2 construct: CD300LB expression constructs'; also called huCD300LB HEK293
T2 sequence: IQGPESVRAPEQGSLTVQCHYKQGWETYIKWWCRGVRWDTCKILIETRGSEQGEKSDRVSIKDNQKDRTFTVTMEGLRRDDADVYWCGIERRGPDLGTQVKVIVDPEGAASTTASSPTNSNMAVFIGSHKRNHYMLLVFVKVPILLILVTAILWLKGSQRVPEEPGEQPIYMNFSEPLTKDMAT

T3: recombinant human CD300LB overexpressed on Jurkat cells (human, UniProt A8K4G0 18-201)
T3 construct: also called huCD300LB; huCD300LB-expressing Jurkat cells
T3 sequence: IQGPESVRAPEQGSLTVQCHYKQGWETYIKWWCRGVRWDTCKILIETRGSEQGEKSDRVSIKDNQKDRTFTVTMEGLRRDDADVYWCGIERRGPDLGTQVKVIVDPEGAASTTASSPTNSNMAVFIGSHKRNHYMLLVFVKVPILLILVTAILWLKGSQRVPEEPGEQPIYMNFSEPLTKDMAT

T4: human CD300LB on primary human monocytes (human, UniProt A8K4G0 18-201)
T4 construct: Endogenous protein on primary cells; that the target is CD300LB is inferred from the antibodies being anti-CD300LB antibodies; also called Monocyte donor 1281; Monocyte donor 1282
T4 sequence: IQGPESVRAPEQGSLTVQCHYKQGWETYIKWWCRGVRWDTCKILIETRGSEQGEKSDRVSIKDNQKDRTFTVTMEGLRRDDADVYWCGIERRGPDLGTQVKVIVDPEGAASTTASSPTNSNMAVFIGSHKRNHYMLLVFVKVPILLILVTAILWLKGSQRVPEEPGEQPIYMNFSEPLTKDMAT

T5: human CD300LB on primary human macrophages (human, UniProt A8K4G0 18-201)
T5 sequence: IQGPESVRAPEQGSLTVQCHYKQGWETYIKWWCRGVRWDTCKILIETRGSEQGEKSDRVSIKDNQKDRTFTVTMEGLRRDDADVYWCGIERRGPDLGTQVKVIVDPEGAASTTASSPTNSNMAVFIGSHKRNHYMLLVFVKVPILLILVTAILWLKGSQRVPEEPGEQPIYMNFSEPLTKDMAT

T6: murine CD300LB stably expressed on Jurkat cells (mouse, UniProt Q3U497 18-209)
T6 construct: also called muCD300LB; mouse CD300LB
T6 sequence: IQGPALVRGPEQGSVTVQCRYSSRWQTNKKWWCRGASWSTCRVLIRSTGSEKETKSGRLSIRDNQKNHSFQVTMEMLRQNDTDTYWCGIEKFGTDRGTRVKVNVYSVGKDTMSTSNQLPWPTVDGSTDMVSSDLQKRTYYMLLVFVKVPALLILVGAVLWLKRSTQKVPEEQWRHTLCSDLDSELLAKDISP


Experiments:
[1] = biological target: T7, huCD300LB-DAP12 fusion constitutively expressed on 293 Freestyle (Freestyle HEK) cells (human); assay: flow cytometry, stable Freestyle HEK cells
T7 construct: also called Human CD300LB-DAP12 chimera
Protocol: (§1) Other members of the human CD300 family share sequence homology with human CD300LB. Thus, counter screens against binding of the anti-CD300LB antibodies to huCD300A, huCD300C, huCD300LD, huCD300E, huCD300LF, and huCD300G by stable overexpression in Freestyle HEK cells (generation of which is described above) were performed as follows. Cells were counted and labeled with 200 nM CFSE, 500 nM VioBlue, or a combination of the two to discriminate between CD300LB, Parental cells, and the other CD300 family members. Cells were washed thoroughly with PBS containing 2% fetal bovine serum then resuspended at a total of 240,000 cells per well. Hybridoma supernatants (100 L) or purified antibodies at various concentrations were added and incubated for one hour before the cells were washed twice again and stained with an APC-labeled anti-human or anti-mouse secondary antibody. Cells were then analyzed using a BD FACSCanto II. Anti-CD300LB antibodies were analyzed for specific binding to human CD300LB by FlowJo software by gating on live cells, then the APC geometric mean fluorescence intensity (gMFI) calculated for each labeled population. The results are shown in […]
(§2) Freestyle HEK cells were transfected with huCD300A, huCD300C, huCD300D, huCD300E, and huCD300G separately. Then, five stable cell lines from these transfections were pooled; the combined cells are herein known as CD300A/C/D/E/G. Freestyle HEK cells were also transfected with huCD300LB and huCD300F. All transfected cells were then tested for binding of anti-CD300LB antibodies of the present disclosure.
Target sequence in this assay (chain, as listed by the source limits assumed): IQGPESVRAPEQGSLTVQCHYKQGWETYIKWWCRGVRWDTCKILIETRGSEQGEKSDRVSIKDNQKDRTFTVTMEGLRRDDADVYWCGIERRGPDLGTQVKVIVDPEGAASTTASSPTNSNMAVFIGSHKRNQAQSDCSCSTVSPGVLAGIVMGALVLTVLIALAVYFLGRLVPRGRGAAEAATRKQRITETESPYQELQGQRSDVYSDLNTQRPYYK

[2] = biological target: T1, huCD300F constitutively expressed on …; assay: flow cytometry, stable Freestyle HEK cells
Protocol: as §1, §2

[3] = biological target: T2, human CD300LB transiently expressed on …; assay: flow cytometry, transfected HEK293, 10 ug/mL, isotype subtracted
Protocol: In addition, supernatants or purified antibodies were tested for species crossreactivity by comparing the binding of human, mouse, and cynomolgous monkey CD300LB expressing cell lines. HEK293 were transfected with […] of human, mouse, and cyno CD300LB expression constructs using the Mirus system in 10 cm tissue culture dishes. Cells were then incubated for 24 hours in complete medium. Cells were harvested by incubation in TrypLE Express, then washed with PBS and labeled with 200 nM CFSE, 500 nM VioBlue, or a combination of the two to discriminate between human, mouse, and cyno CD300LB expressing cells. Cells were washed thoroughly with PBS containing 2% fetal bovine serum then resuspended at a total of 240,000 cells per well. Purified antibodies at 10 μg/mL were added and incubated for one hour before the cells were washed again and stained with an APC-labeled anti-human or anti-mouse secondary. Cells were then analyzed using a BD FACSCanto II. Antibodies were analyzed for specific binding to human, mouse, or cyno CD300LB by FlowJo software by gating on live cells, then the APC gMFI calculated for each labeled population minus the gMFI of the isotype control.

[4] = biological target: T3, recombinant human CD300LB overexpressed …; assay: flow cytometry on Jurkat cells overexpressing huCD300LB, apparent KD (Drake & Klakamp fit)
Protocol: Purified anti-CD300LB antibodies of the present disclosure were evaluated for their binding affinity to either Jurkat cells overexpressing recombinant huCD300LB or BaF/3 cells overexpressing recombinant muCD300LB. Binding of anti-CD300LB antibodies to the cells was determined as follows. Cells were harvested, washed, and labeled with propidium iodide for viability discrimination. After washing the cells with PBS, 1×10⁵ cells were aliquoted per well in 96-well U-bottom plates and incubated with 100 μL of purified anti-CD300LB antibody at various concentrations in FACS buffer (PBS+2% FBS). After this primary incubation, the supernatant was removed via centrifugation, the cells washed twice with 150 μL of ice-cold FACS buffer, and then incubated with the appropriate secondary antibody on ice for 30 minutes. Following the secondary antibody incubation, the cells were again washed twice with ice-cold FACS buffer and resuspended in a final volume of 200 L FACS buffer. Flow cytometry analysis was then performed using the FACSCanto system (BD Biosciences).
To determine affinity, antibodies at increasing concentrations were used to stain Jurkat cells overexpressing huCD300LB and geometric MFI values measured by the flow cytometer were analyzed on Prism (Graphpad) software.

[5] = biological target: T4, human CD300LB on primary human monocytes; assay: flow cytometry, primary human monocytes donor 1281, 10 ug/mL antibody, isotype control subtracted
Protocol: (§3) Human monocytes from various donors were isolated from whole blood using RosetteSep Human Monocyte Enrichment Cocktail (Stemcell technologies) and Ficoll centrifugation per manufacturer protocols. After lysing red blood cells with ACK lysing buffer, monocytes were resuspended in complete media (RPMI, 10% FBS, Pen/Strep, L-glutamine, HEPES, non-essential amino acid, Sodium pyruvate). To obtain macrophages from these isolated monocytes, 100 ng/ml human M-CSF and 8% v/v human serum were added to the cells for 5-7 days. Cells were counted on the day of the experiment and plated at 100,000 cells per well in a round-bottom 96 well plate. Cells were incubated with TruStain Fc block and 10 μg/mL antibody for 1 hour on ice before washing with 250 μL ice cold PBS twice. Cells were then incubated with the appropriate APC-conjugated secondary antibodies for 20 minutes in the dark on ice. Finally, cells were washed twice with ice cold FACS buffer and then resuspended in 100 μL FACS buffer containing 1% propidium iodide. Samples were immediately analyzed using a BD FACSCanto flow cytometer. The gMFI was calculated using FlowJo software minus the gMFI of the appropriate isotype control.

[6] = biological target: T4, human CD300LB on primary human monocytes; assay: flow cytometry, primary human monocytes donor 1282, 10 ug/mL antibody, isotype control subtracted
Protocol: as §3

[7] = biological target: T4, human CD300LB on primary human monocytes; assay: flow cytometry, primary human monocytes donor 1283, 10 ug/mL antibody, isotype control subtracted
Protocol: as §3

[8] = biological target: T4, human CD300LB on primary human monocytes; assay: flow cytometry, primary human monocytes donor 1284, 10 ug/mL antibody, isotype control subtracted
Protocol: as §3

[9] = biological target: T5, human CD300LB on primary human …; assay: flow cytometry, primary human macrophages donor 1275, 10 ug/mL antibody, isotype control subtracted
Protocol: as §3

[10] = biological target: T5, human CD300LB on primary human …; assay: flow cytometry, primary human macrophages donor 1277, 10 ug/mL antibody, isotype control subtracted
Protocol: as §3

[11] = biological target: T5, human CD300LB on primary human …; assay: flow cytometry, primary human macrophages donor 1278, 10 ug/mL antibody, isotype control subtracted
Protocol: as §3

[12] = biological target: T6, murine CD300LB stably expressed on …; assay: flow cytometry, stable Jurkat cells
[13] = biological target: T3, recombinant human CD300LB overexpressed …; assay: flow cytometry, stable Jurkat cells, supernatant or 10 ug/mL, isotype subtracted
Protocol: (§4) Purified anti-CD300LB antibodies of the present disclosure were also evaluated for species cross-reactivity to mouse and human CD300LB stably expressed in Jurkat cells (generation of which is described above). Cells were counted and labeled with 200 nM CFSE, 500 nM VioBlue, or a combination of the two to discriminate between human CD300LB, Parental cells and mouse CD300LB. Cells were washed thoroughly with PBS containing 2% fetal bovine serum then resuspended at a total of 240,000 cells per well. Hybridoma supernatants (100 L) or purified antibodies at 10 μg/mL were added and incubated for one hour before the cells were washed again and stained with an APC-labeled anti-human or anti-mouse secondary. Cells were then analyzed using a BD FACSCanto II. Antibodies were analyzed for binding to mouse or human CD300LB by FlowJo software by gating on live cells, then the APC gMFI calculated for each labeled population by subtraction of the gMFI of the appropriate isotype control.

[14] = biological target: T6, murine CD300LB stably expressed on …; assay: as above
Protocol: as §4

[15] = biological target: T7, huCD300LB-DAP12 fusion constitutively …; assay: flow cytometry, geometric mean (APC-A), FreeStyle HEK cells expressing huCD300LB
Protocol: as §1

gMFI [1] [gMFI] | binding result [2] | gMFI [2] [gMFI] | gMFI [3] [gMFI] | Kd [4] [nM] | gMFI [5] [gMFI] | gMFI [6] [gMFI] | gMFI [7] [gMFI] | gMFI [8] [gMFI] | gMFI [9] [gMFI] | gMFI [10] [gMFI] | gMFI [11] [gMFI] | binding result [12] | gMFI [13] [gMFI] | gMFI [14] [gMFI] | binding result [15] | Binder
37900 | no binding | 28 | 445 | 109 | 1370 | 3070 | 2580 | 1040 | 19700 | 15700 | 13300 |  |  |  |  | anti-CD300LB antibody CD-09 (antibody, V domains shown) VH: QVQLVQSGAEVKKPGASVKVSCKASGYTFTTYAVHWVRQAPGQGLEWMGIINPNSGGTNYAQKFQGRVTMTRDTSTSTVYMELSSLRSEDTAVYYCARDIVPMNNFYNYYYGMDVWGQGTTVTVSS VL: DIQMTQSPSSLSASVGDRVTITCRASQSISSYLNWYQQKPGKAPKLLIYATSTLQSGVPSRFSGSGSGTDFTLTISSLQPEDFATYYCQQSYRIPYTFGQGTKVEIK
56800 | no binding | 212 | 774 | 45 | 2970 | 4470 | 1920 | 1400 | 3580 | 2800 | 135000 |  |  |  |  | anti-CD300LB antibody CD-08 (antibody, V domains shown) VH: EVQLLESGGGLVQPGGSLRLSCAASGFTFSNAWMSWVRQAPGKGLEWVSVISGSGGRTYYADSVKGRFTISRDNSKNTLYLQMNSLRAEDTAVYYCARDGTTVAPKGMDVWGQGTTVTVSS VL: DIQMTQSPSSLSASVGDRVTITCQASQDINNYVNWYQQKPGKAPKLLIYAASNLQSGVPSRFSGSGSGTDFTLTISSLQPEDFATYYCQQSYSPPYTFGQGTKLEIK
190 |  |  | 207 | 32 |  |  |  |  |  |  |  | no binding (tested: 10 ug/mL) | 193 | 18 | no binding | anti-CD300LB antibody CD-04 (antibody, V domains shown) VH: QVQLQQSGAELVRPGASVTLSCRASGYTFTDFEMHWVKQTPLHGLEWIGAIAPETGGTAYNQKFKGKAILTADKSSSTAYVELRSLTSEDSAVYFCTRLGGMDYWGQGTSVTVSS VL: DVVMTQTPLSLPVSLGDQASISCRSSQTLVHNNGNTYLYWYLQKPGQSPKLLIYQVSNRFFGVPDRFSGSGSGTDFTLKISRVEAEDLGLYFCSQSTHVPWTFGGGTKLEIK
